Five molecules from patent US20160355583A1 (Novartis, published 2016) can be followed below.

One may read the koff as the rate constant with which the complex falls apart. Usually kon stands for the second-order rate constant of association. Higher therefore signals fast association. As a reminder, the IC50 is the midpoint of a concentration-inhibition curve.

In assay [1] the target is T1, human BMP9 (BMP9/Growth Differentiation Factor 2 [Homo sapiens], NP_057288) (human, UniProt Q9UK05 320-429, limits assumed).
T1 construct: cell assays use 'recombinant human BMP9 complex'; also called huBMP9; hBMP9
T1 sequence: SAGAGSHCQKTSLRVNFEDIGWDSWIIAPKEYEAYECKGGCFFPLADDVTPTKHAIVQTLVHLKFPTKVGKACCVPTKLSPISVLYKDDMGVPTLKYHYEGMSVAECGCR
Briefly: Biacore SPR, bivalent model, kd1.

The target of assay [2] is T1, human BMP9 (BMP9/Growth Differentiation …). Kind of assay: Biacore SPR, bivalent model, KD from ka1 and kd1.
Assay [3] has the same target. Kind of assay: Biacore SPR, bivalent model, ka1. On the technique in general: Surface plasmon resonance follows binding to a sensor surface in real time, without labels.
For assay [4], the target named is T2, human BMP10 (Bone Morphogenetic Protein 10 Preproprotein [Homo sapiens], NP_055297) (human, UniProt O95393 317-424).
T2 construct: Bought recombinant protein; also called huBMP10; rhBMP10 (R&D Cat#2926-BP-025)
T2 sequence: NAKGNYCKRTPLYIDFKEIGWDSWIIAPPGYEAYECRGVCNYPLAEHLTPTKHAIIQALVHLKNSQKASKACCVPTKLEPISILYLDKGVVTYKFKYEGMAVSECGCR
Kind of assay: Table 7 (caption: MSD-SET; Example 6 describes Biacore SPR on immobilised rhBMP10, Fab 31.25-1000 nM).

In assay [5] the target is T3, mouse BMP9 (mouse, UniProt Q9WV56 319-428, limits assumed).
T3 construct: also called murine BMP9; mouse BMP9 (iPROT101715)
T3 sequence (looked up): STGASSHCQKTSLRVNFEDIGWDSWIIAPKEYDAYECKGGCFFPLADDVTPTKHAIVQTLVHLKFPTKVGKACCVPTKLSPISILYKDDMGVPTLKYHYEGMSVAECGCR
Briefly: MSD-SET solution equilibrium titration. On the procedure:
(§1) The amount of free Fab binding sites was determined by transferring the mixtures on antigen-coated plates and a brief incubation. The free Fab was consequently bound to the plate and detected with a detection antibody after a washing step for removing Fab-antigen complexes. The resulting signal was plotted versus the antigen concentration; and the KD was accurately determined by non-linear curve fitting.
(§2) A 22 serial 2ⁿ dilution of the antigens (human BMP9 (GD-43-KS00); cyno BMP9, rat BMP9 (R&D Systems 5566-BP) or mouse BMP9 (iPROT101715)) was prepared in incubation buffer (PBS (Teknova Cat#P0195) containing 0.5% BSA (Sigma Cat#A7906-500G) and 0.02% Tween-20 (VWR Cat#437082Q)). A constant concentration of the Fab was added. A volume of 60 ul of each antigen:Fab mix was distributed in duplicates to a 384-well polypropylene microtiter plate (PP MTP, Greiner Cat#781280). Incubation buffer served as negative control and a sample containing no antigen served as positive control (Bₘₐₓ). The plate was sealed and incubated overnight (O/N) at room temperature (RT).
(§3) A 384-well standard MSD array plate (Meso Scale Discovery Cat#L21XA) was coated with 30 ul/well human BMP9 diluted in PBS as capture agent and incubated O/N at 4° C. After washing for 3 times with 70 ul/well washing buffer (TBS (Teknova Cat#T1680) with 0.05% Tween-20), the plate was blocked with 50 ul/well blocking buffer (PBS with 5% BSA) for 1 hour at RT. After washing, a volume of 30 ul/well of the antigen:Fab mix was transferred from the PP MTP to the coated MSD plate and incubated for 20 min at RT. After an additional wash step, 30 ul of detection antibody (Goat anti-human Fab specific (Jackson Immuno Research Cat#109-005-097) conjugated with MSD SULFO-TAG NHS Ester (Meso Scale Discovery Cat#R91AN-1)) diluted 1:1000 in incubation buffer was added to each well and incubated for 30 min at RT. The MSD plate was washed and 35 ul/well of read buffer (MSD Read Buffer T 4×, Meso Scale Discovery Cat#R92TC-1) was added and then incubated for 5 min at RT. ECL signals were measured with the MSD SECTOR Imager 6000. The data was evaluated with XLfit (IDBS) software following a 1:1 fit model for Fab (according to Piehler et al., 1997).

Assay [6] addresses T1, human BMP9 (BMP9/Growth Differentiation …). Briefly: MSD-SET solution equilibrium titration. On the procedure: as §1, §2, §3
Assay [7] addresses T4, cyno BMP9 (cyno, UniProt G7PEU8 320-429).
T4 sequence: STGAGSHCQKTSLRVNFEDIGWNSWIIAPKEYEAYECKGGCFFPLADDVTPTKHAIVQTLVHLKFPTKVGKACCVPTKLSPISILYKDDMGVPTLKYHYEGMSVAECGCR
Briefly: MSD-SET solution equilibrium titration. On the procedure: as §1, §2, §3

Assay [8] deals with T1, human BMP9 (BMP9/Growth Differentiation …). Kind of assay: cell-based or functional assay.
Assay [9] concerns the target T5, human BMP2 (human, UniProt P12643 283-396).
T5 construct: Bought recombinant protein; also called huBMP2; rhBMP2 (R&D Cat#355-BM-010)
Briefly: table caption: MSD-SET; Example 6 describes Biacore SPR for BMP2, BMP7, BMP10.

The target in assay [10] is T1, human BMP9 (BMP9/Growth Differentiation …). Kind of assay: blocking ELISA; competitor Type I BMP receptor (AlkI). On the procedure: (§4) Blocking ELISA was used to identify positive clones that can inhibit the interactions between BMP9 and its receptors. Four different recombinant BMP9 receptors can be used: human Alk1-Fc (R&D system, 370-AL-100); human BMPRII-Fc (R&D system, 811-BR-100); human ActRIIA-Fc (R&D system, 340-R2-100); human ActRIIB-Fc (R&D system).
(§5) The blocking activity of antibody sample to specific ligand/receptor combination was measured by ELISA. In brief, 50 ul of receptor at a concentration of 1 ug/ml in coating buffer (PBS) was added into 96 well ELISA plates at 4° C. overnight, followed by washing with PBST one time. ELISA plates were blocked with 200 ul blocking buffer (PBST containing 1% BSA) in each well and then incubated at room temperature (RT) for 1 hour, followed by washing with PBST for 3 times. Diluted antibody sample was mixed with biotinylated human BMP9 (bio-hBMP9 of 1 ug/ml) and incubated at RT for 45 minutes. The mixture of antibody and bio-hBMP9 was added to the plates of 50 ul/well and then incubated at RT for 30 minutes, followed by washing with PBST for 3 times. 50 ul Poly-HRP Streptavidin (Thermofisher, 21140) was added to each well of the plates and incubated at RT for 30 minutes, followed by washing with PBST for 5 times. Finally, 50 ul of TMB reagent (Invitrogen 002023) and 50 ul of 1N HCl (Invitrogen SS01100) were added to each well to stop the reaction. Absorbance of each well was read at 450 nm to get readout OD₄₅₀.
On the technique in general: In an ELISA, binding on a coated surface is turned into a signal by an enzyme label.

For assay [11] the target is unchanged. Kind of assay: cell-based or functional assay. This is another data set of the same source.
The target of assay [12] is T6, rat BMP9 (rat, UniProt M0RB87 320-430, The mature growth factor is a disulfide-linked homodimer. One copy of the polypeptide is given.).
T6 construct: also called rat BMP9 (R&D Systems 5566-BP); rat BMP9 condition medium
T6 sequence: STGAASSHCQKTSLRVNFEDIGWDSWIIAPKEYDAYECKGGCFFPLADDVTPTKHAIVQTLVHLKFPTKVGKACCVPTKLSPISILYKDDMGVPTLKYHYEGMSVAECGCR
Briefly: MSD-SET solution equilibrium titration. On the procedure:
as §1, §2, §3

Assay [13] addresses T2, human BMP10 (Bone Morphogenetic Protein …). Briefly: Table 5 (caption: MSD-SET; Example 6 describes Biacore SPR on immobilised rhBMP10, Fab 31.25-1000 nM).
For assay [14], the target named is T5, human BMP2. Briefly: table caption: MSD-SET; Example 6 describes Biacore SPR for BMP2, BMP7, BMP10. This is another data set of the same source.
The target in assay [15] is T7, human BMP7 (human, UniProt P18075 293-431).
T7 construct: Bought recombinant protein; also called huBMP7; rhBMP7 (R&D Cat#354-BP-010)
T7 sequence (looked up): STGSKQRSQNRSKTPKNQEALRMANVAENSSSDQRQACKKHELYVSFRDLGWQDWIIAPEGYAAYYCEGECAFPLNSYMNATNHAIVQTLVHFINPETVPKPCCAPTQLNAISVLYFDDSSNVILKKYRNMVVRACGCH
The assay is described as above.

Assay [16] addresses T1, human BMP9 (BMP9/Growth Differentiation …). Kind of assay: blocking ELISA; competitor Type II BMP receptor (ActRIIB, BMPRII). On the procedure:
as §4, §5

In assay [17] the target is T5, human BMP2. Briefly: Table 5 (caption: MSD-SET; Example 6 describes Biacore SPR on immobilised rhBMP2, Fab 31.25-1000 nM).
Assay [18] deals with T7, human BMP7. Kind of assay: Table 5 (caption: MSD-SET; Example 6 describes Biacore SPR on immobilised rhBMP7, Fab 31.25-1000 nM).

Where two headings read alike, the source gives them in different places.

T5 sequence (P12643 283-396 limits assumed): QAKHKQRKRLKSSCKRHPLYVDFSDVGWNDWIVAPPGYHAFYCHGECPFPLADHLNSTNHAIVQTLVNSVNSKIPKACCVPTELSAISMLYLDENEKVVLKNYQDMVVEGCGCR

B1: Mouse Antibody 2B11G2 (antibody, V domains shown)
VH: QAYLQQSGAELVRPGASVKMSCKASGYTFPSYNMHWVKQTPRQGLEWIGVIYPGNGVTSYSQKFKDKATLTVDKSSSTAYMQLSSLTSEDSAVYFCAKDDYFYGGSYAMDYWGQGTSVTVSS
VL: DIVLTQSPATLSVTPGDSVSLSCRASQSISNNLHWYQQISHESPRLLIKYASQSISGIPSRFSGSGSGTDFTLSINSMETEDFGMFFCQQSHSWPYTFGGGTKLEIK
notes: Mouse hybridoma monoclonal antibody; also called B211G2
In the case of B1, the koff in assay [1] turned out to be 0.000166 s⁻¹. This molecule displayed a Kd in [2] of 66.2 nM. Also, the kon in assay [3] is 2510 M⁻¹ s⁻¹.

B2: Antibody BMP9-6: MOR022965 (antibody, human IgG1, kappa, V domains shown)
VH: QVQLVQSGAEVKKPGSSVKVSCKASGGTFSSYAISWVRQAPGQGLEWMGHIIPHWGHARYAQKFQGRVTITADESTSTAYMELSSLRSEDTAVYYCARSASSLPHFHWFDYWGQGTLVTVSS
VL: DIQMTQSPSSLSASVGDRVTITCRASQDINNYLNWYQQKPGKAPKLLIYAASRLQSGVPSRFSGSGSGTDFTLTISSLQPEDFATYYCQQRDTTPWTFGQGTKVEIKR
notes: Fully human, phage display
As for B2, the binding result in assay [4] was “no binding”. For the same molecule, the Kd in assay [5] was 0.069 nM; in assay [6] it was 0.032 nM; in assay [7] it was 0.023 nM; in assay [9] it was 3110 nM. The “RGA IC50 [pM] (HEK293T BRE-Luc reporter gene assay)” value (“RGA IC50 [pM]” for short) in assay [8] worked out at 180 pM. Besides, the IC50 in assay [10] is ≤ 1 nM.

B3: Antibody BMP9-4: AM4405 (antibody, human IgG1, kappa, V domains shown)
VH: QVQLVQSGAEVKKPGASVKVSCKASGYTFRSYNMHWVRQAPGQGLEWMGLIYPGNAVTSYSQKFKDRVTMTVDKSTSTAYMELSSLRSEDTAVYYCAKDDYFRGGSYAMDYWGQGTTVTVSS
VL: EIVLTQSPDFQSVTPKEKVTITCRASQSIRNNLHWYQQKPDQSPKLLIKYASQSIRGVPSRFSGSGSGTDFTLTINSLEAEDAATYYCQQSHSWPYTFGGGTKVEIKR
notes: also called 2B11G2-AM4405
Take B3: the “RGA IC50 [pM]” value in [11] came out at 90 pM. Further, the Kd in [5] came to 0.008 nM; in assay [12] it was 0.013 nM; in [6], 0.018 nM; in assay [7] it was 0.048 nM; in [14], 177 nM; in assay [15], 9170 nM. Further, in [13], the binding result was “no binding”. The half-maximal inhibitory concentration (IC50) in assay [10] is ≤ 1 nM.

B4: Antibody BMP9-1: AM0100 (antibody, human IgG1, kappa, V domains shown)
VH: QVQLVQSGAEVKKPGASVKVSCKASGYTFTRYWMHWVRQAPGQGLEWMGEINPSQGGTNYNEKFKSRVTMTVDKSISTAYMELSRLRSDDTAVYYCAIGSNYGGLVYWGQGTLVTVSS
VL: EIVLTQSPATLSLSPGERATLSCRASESLDNYGISFMNWFQQKPGQAPRFLIYAASNQGSGIPARFSGSGSGTDFTLTISSLQPEDTAVYFCQQSKEVPRTFGGGTKVEIKR
notes: also called 4E10D7-AM0100
As for B4, the “RGA IC50 [pM]” value in [11] was 83 pM. The Kd in [5] was found to be 0.073 nM; in assay [12], 0.094 nM; in assay [6], 0.182 nM; in [7] it was 0.128 nM. Also, the IC50 in assay [16] was ≤ 1 nM. Besides, the binding result in assay [17], in [13] and in assay [18] was “no binding” throughout.

B5: Mouse Antibody 4E10D7 (antibody, V domains shown)
VH: QVQLQQPGAEAVKPGASVKLSCKASGYTFTRYWMHWVKQRPGQGLEWIGEINPSNGGTNYNEKFKSKATLTVDKSSSTAYMQLSSLTSEDFAVYYCTMGSNYGGFVYWGQGTLVTVSA
VL: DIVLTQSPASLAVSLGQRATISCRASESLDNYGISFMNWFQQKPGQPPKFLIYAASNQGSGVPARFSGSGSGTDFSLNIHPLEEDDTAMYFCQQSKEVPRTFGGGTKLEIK
notes: Mouse hybridoma monoclonal antibody; also called parental 4E10D7 antibody
Molecule B5 registered a koff in [1] of 0.000617 s⁻¹. This molecule also displayed a Kd in assay [2] of 2.2 nM. In addition, the kon in [3] came out at 281000 M⁻¹ s⁻¹.
